Measured values published in IntAct's records for PubMed 16513117.

B1: Protein phosphatase Slingshot homolog 1 (Homo sapiens), Q8WYL5 (parent)
chain: MALVTLQRSPTPSAASSSASNSELEAGSEEDRKLNLSLSESFFMVKGAALFLQQGSSPQGQRSLQHPHKHAGDLPQHLQVMINLLRCEDRIKLAVRLESAWADRVRYMVVVYSSGRQDTEENILLGVDFSSKESKSCTIGMVLRLWSDTKIHLDGDGGFSVSTAGRMHIFKPVSVQAMWSALQVLHKACEVARRHNYFPGGVALIWATYYESCISSEQSCINEWNAMQDLESTRPDSPALFVDKPTEGERTERLIKAKLRSIMMSQDLENVTSKEIRNELEKQMNCNLKELKEFIDNEMLLILGQMDKPSLIFDHLYLGSEWNASNLEELQGSGVDYILNVTREIDNFFPGLFAYHNIRVYDEETTDLLAHWNEAYHFINKAKRNHSKCLVHCKMGVSRSASTVIAYAMKEFGWPLEKAYNYVKQKRSITRPNAGFMRQLSEYEGILDASKQRHNKLWRQQTDSSLQQPVDDPAGPGDFLPETPDGTPESQLPFLDDAAQPGLGPPLPCCFRRLSDPLLPSPEDETGSLVHLEDPEREALLEEAAPPAEVHRPARQPQQGSGLCEKDVKKKLEFGSPKGRSGSLLQVEETEREEGLGAGRWGQLPTQLDQNLLNSENLNNNSKRSCPNGMEDDAIFGILNKVKPSYKSCADCMYPTASGAPEASRERCEDPNAPAICTQPAFLPHITSSPVAHLASRSRVPEKPASGPTEPPPFLPPAGSRRADTSGPGAGAALEPPASLLEPSRETPKVLPKSLLLKNSHCDKNPPSTEVVIKEESSPKKDMKPAKDLRLLFSNESEKPTTNSYLMQHQESIIQLQKAGLVRKHTKELERLKSVPADPAPPSRDGPASRLEASIPEESQDPAALHELGPLVMPSQAGSDEKSEAAPASLEGGSLKSPPPFFYRLDHTSSFSKDFLKTICYTPTSSSMSSNLTRSSSSDSIHSVRGKPGLVKQRTQEIETRLRLAGLTVSSPLKRSHSLAKLGSLTFSTEDLSSEADPSTVADSQDTTLSESSFLHEPQGTPRDPAATSKPSGKPAPENLKSPSWMSKS

Variants of: B1
Details: with actb_rabit ACTB

| effect of a mutation on the interaction | Variant |
| --- | --- |
| disrupting interaction | W458A |
